This is an account of results in PMC3148250, “Structural Basis for Sequence Specific DNA Binding and Protein Dimerization of HOXA13” (PLoS ONE, 2011).

Where only a bound is given, the exact number is not on record here.

Data set [1] deals with the molecule itself. Briefly: not stated; K343E mutant of A13DBD; the method is not named for this mutant (the neighbouring mutants were tested by SEC/MALS of the DNA complex).
Data set [2] deals with the molecule itself. Briefly: SEC-MALS; A13DBD bound to 11-mer DNA duplex; Superdex 75 HR 10/30 at 4°C, calibrated with mass standards, in line with MALS and refractive index; mass as a function of protein concentration; dimer to monomers. For orientation: In gel filtration, larger molecules generally elute earlier.
Data set [3] concerns the molecule itself. Briefly: 15N NMR relaxation (rotational correlation time); A13DBD bound to 11-mer DNA duplex, about 0.5 mM, 310 K, 20 mM NaPO4, 5 mM MgCl2, pH 6.0; R2/R1 gives the rotational correlation time and a spherical mass.

B1: HOXA13 DNA binding domain (A13DBD) K343E (domain or fragment)
chain: not shown
notes: numbers count on: GenBank AAB03322.1; source: E. coli BL21(DE3), purified (His-tag purification, thrombin cleavage, Superdex-75)
Take B1: the “fold lowering of the dimerization affinity against wild type” value in data set [1] was about 5 fold.

B2: HOXA13 DNA binding domain (A13DBD) F344A (domain or fragment)
chain: not shown
notes: numbers count on: GenBank AAB03322.1; Made by QuikChange mutagenesis of pHisA13DBD; The luciferase assay used the same mutation in full-length HOXA13 (pCAGGS-HOXA13) in NG108-15 cells; source: E. coli BL21(DE3), purified (His-tag purification, thrombin cleavage, Superdex-75)
Regarding B2, the “fold weakening of the dimerization affinity against wild type” value in data set [2] is at least 10 fold.

B3: HOXA13 DNA binding domain (A13DBD), wild type (domain or fragment)
chain: not shown
notes: numbers count on: GenBank AAB03322.1; The introduction gives residues 314-386 for A13DBD, the methods G320-S386; Cloned in pET-15b; also called HOXA13 homeodomain; WT; source: E. coli BL21(DE3), purified (His-tag purification, thrombin cleavage, Superdex-75)
In general, Kd refers to the equilibrium constant for the complex coming apart. Low readings indicate higher affinity, high ones lower affinity. Broadly, the stoichiometry N is a count of units in the complex or per binding partner. In turn, B3 had a Kd in data set [2] of under 500 nM. The “stoichiometry N” value in data set [3] worked out at 2.
